Laboratory results taken from PMC9340540 (2022).

T1: CHN-1 (C. elegans)
T1 chain: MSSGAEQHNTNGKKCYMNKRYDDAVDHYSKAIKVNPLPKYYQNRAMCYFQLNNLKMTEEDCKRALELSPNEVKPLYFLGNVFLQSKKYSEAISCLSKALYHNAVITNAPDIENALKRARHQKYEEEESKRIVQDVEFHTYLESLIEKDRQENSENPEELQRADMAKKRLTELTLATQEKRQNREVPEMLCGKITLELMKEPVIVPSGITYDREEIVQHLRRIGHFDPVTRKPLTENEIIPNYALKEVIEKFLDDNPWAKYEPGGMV

B1: HSP-1::6xHis (natural protein)
chain: not shown
B2: UFD-2 (enzyme)
chain: MIEDEKAGLQPMDISDASVFFFQADVESKDFLTSLFDCEGKSDDRMLRYADAIIDVQNLNFDVSPQCLQSNIAEIITKFVLLSQDGSRRGLSRSFNFIDPDIIAGCREEDAIEFLLINFVRCHHELGKSGTSNCYKKTLESTRKAVFSVFVMIQRGYLESQLRSQHASLVFTKRLLEDTVSNVFLRTLVEYLASTDECDEDAITETFNPIFGILRSGIICQRFEDNKDEIVRQILRVMNLLLSIRLPSNGPRPLSNLLVNREDFLPTPSEKIQGREFGLMSFLGPFFSYGLESSARRPNHRVFVDCEEDARKYDGSVNTEQKLYFQRMDPIRTMLHQLMLPLASDQGSRNKTLRWIATIISTNDIRTRSHYDPSDVLCDHYMTNFLSVMYMFSEKIDLSKIIVDYPFLPSSLINISKETRLKMDESGAVAFASQFADRPDEYHFSTVCFFLTIAAQRLVIPPLMNQISEYSRHLKELKHKINALKEKLNTVSGFERAEVEKKLNYETEHWKLMSRHLLCVKTQAQDPALMASSMDFVDKQMKFILNLLCDNLDLLGDDSQLPTEVSQMFCALPEYFLEDALDFYIFAISNGMKLLMERNADWISRLTVLFTQYHYIKSPFLVSKLVRVLSSIQPPLWFNVVRLRMAQENLLMCMIKFYSDFEDNGDFYEKFNVRGNIQYMLEKMEEDMFYKGKFMDMARECGAEFIRFVNMVINDATWCIDESLSGLKSIHDVEKKMANKVEWDNTDQEIRNQDLGVYEEAKRKVKGWLGTAKSNLKLLLSITVNSPEPFRTPVLGERLAAMLNHNLSQLIGSKASELKVKDPRSYGWEPREFVSLLISIYLKLNMPAFVKYIAYDERTYSPEFFHNAIECMRKNSIVGFSQLESFEHLAEDVKKEYEAKAELEEEYDDVPEEFKDPIMDAIMVDPVKLPSGHVMDRAVIERHLLSTPNNPFNRAPLSHNELSPDSELKAKIQEWICQKRNSKK

Target: T1, CHN-1
Assay: ELISA

Binder	Kd [nM]
B1	12.2
B2	37.8
